Data: PMC8942982, “The role of lysine palmitoylation/myristoylation in the function of the TEAD transcription factors” (Scientific Reports, 2022)
Positions count from the first letter of the chain named. One block for each binder: values may come before it.

Tests used:
Experiment in all cases: SPR; biotinylated-Avitagged Sd proteins immobilized on sensor chips; Yki^30-146 or Vg^263-382 as analyte; carried out as previously described (ref. 28)
Details in all cases: both partners purified
[1] = molecular target: T1, Scalloped, residues 223-440, wild type (Sd^223-440) (Drosophila melanogaster, UniProt P30052 223-440, acylated to completion with Myristoyl-Coenzyme A: a mixture acylated on Cys373 (hydroxylamine-sensitive, 47%) or on Lys350 (hydroxylamine-insensitive, 54%); biotin on the Avitag)
T1 construct: Scalloped (Sd), Drosophila homolog of human TEAD, UniProtKB P30052, residues 223-440; also called wt^Sd
T1 sequence (looked up): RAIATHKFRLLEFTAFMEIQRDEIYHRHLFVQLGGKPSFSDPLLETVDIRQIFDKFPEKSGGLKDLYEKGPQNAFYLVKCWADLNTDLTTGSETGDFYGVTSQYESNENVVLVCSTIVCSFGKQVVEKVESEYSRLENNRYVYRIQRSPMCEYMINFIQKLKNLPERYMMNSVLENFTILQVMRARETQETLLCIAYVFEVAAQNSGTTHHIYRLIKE

[2] = molecular target: T2, Scalloped, residues 223-440, Glu352Gln mutant (Glu352Gln^Sd) (Drosophila melanogaster, UniProt P30052 223-440, Glu352Gln, acylated to completion with Myristoyl-Coenzyme A: predominantly on Lys350 (hydroxylamine-insensitive, 90%), the rest on Cys373 (10%); biotin on the Avitag)
T2 construct: Scalloped (Sd), Drosophila homolog of human TEAD, UniProtKB P30052, residues 223-440, with Glu352Gln; Mutation introduced into wt^Sd; source: E. coli, purified in a similar manner to wt^Sd, treated with Myristoyl-Coenzyme A
T2 sequence (looked up): T1 sequence (looked up) with E130Q

[3] = molecular target: T3, Scalloped, residues 223-440, Lys350Ala mutant (Lys350Ala^Sd) (Drosophila melanogaster, UniProt P30052 223-440, Lys350Ala, acylated to completion with Myristoyl-Coenzyme A, only on Cys373 (hydroxylamine-sensitive, 100%); biotin on the Avitag)
T3 construct: Scalloped (Sd), Drosophila homolog of human TEAD, UniProtKB P30052, residues 223-440, with Lys350Ala; Mutation introduced into wt^Sd; source: E. coli, purified in a similar manner to wt^Sd, treated with Myristoyl-Coenzyme A
T3 sequence (looked up): T1 sequence (looked up) with K128A

Kd [1]: 0.38 nM | Kd [2]: 0.37 nM | Kd [3]: 2.3 nM
B1: Vestigial, residues 263-382 (Vg^263-382) (domain or fragment, Drosophila melanogaster, UniProt Q26366 263-382, looked up)
chain: ETPMGSGGGGLAGSGQGQAQYLSASCVVFTNYSGDTASQVDEHFSRALNYNNKDSKESSSPMSNRNFPPSFWNSNYVHPIPAPTHHQVSDLYGTATDTGYATDPWVPHAAHYGSYAHAAH

Kd [1]: 9.5 nM | Kd [2]: 4.9 nM | Kd [3]: 14 nM
B2: Yorkie, residues 30-146 (Yki^30-146) (domain or fragment, Drosophila melanogaster, UniProt Q45VV3 30-146, looked up)
chain: SNNLVVRVNQDTDDNLQALFDSVLNPGDAKRPLQLPLRMRKLPNSFFTPPAPSHSRANSADSTYDAGSQSSINIGNKASIVQQPDGQSPIAAIPQLQIQPSPQHSRLAIHHSRARSS
